# Measured values published in patent US20050026827A1, “Octapeptide bombesin analogs” (Societe de Conseils de Recherches et d'Applications …, priority 1987, published 2005).
# Non-standard residues stand in square brackets, D forms with d. Residues, ends and D or L forms follow the SMILES beside them. No end group written: not given here. *: point of attachment. dPhe(F5) = N[C@H](Cc1c(F)c(F)c(F)c(F)c1F)C(=O)O; X2 = CC(C)C[C@@H](CN[C@@H](CC(C)C)C(N)=O)N*; Sta = CC(C)C[C@H](N)[C@@H](O)CC(=O)O; pGlu = O=C1CC[C@@H](C(=O)O)N1; dNMeA = CN[C@H](C)C(=O)O
# Key:
# [1] = target: swiss 3T3 cells (Mus musculus, UniProt P21729); assay: Bombesin-stimulated [3H]thymidine uptake by cultured 3T3 cells; type: cell-based, murine; details: Table 1
# Description: Phase 1—3T3 Peptide Stimulated [^3H] Thymidine Uptake Assay
# Cell Culture. Stock cultures of swiss 3T3 cells are grown in Dulbecco's Modified Eagles Medium (DMEM) supplemented with 10% fetal calf serum in humidified atmosphere of 10% CO2/90% air at 37° C. For experimental use, the cells are seeded into 24-well cluster trays and used four days after she last change of medium. The cells are arrested in the G1/G0 phase of the cell cycle by changing to serum-free DMEM 24 hours prior to the thymidine uptake assay.
# Assay of DNA Synthesis. The cells are washed twice with 1 ml aliquots of DMEM (-serum) then incubated with DMEM (-serum), 0.5 μM [methyl-^3H] thymidine (20 Ci/mmole, New England Nuclear), bombesin (3 nM), and initially four concentrations of the test compounds (1, 10, 100, 1000 nM) in a final volume of 1.0 ml. After 28 hours at 37° C., [methyl-^3H] thymidine incorporation into acid-insoluble pools is assayed as follows. The cells are washed twice with ice-cold 0.9% NaCl (1 ml aliquots), and acid soluble radioactivity is removed by a 30 min. (4° C.) incubation with 5% trichloroacetic acid (TCA). The cultures are then washed once (1 ml) with 95% ethanol and solubilized by a 30 min. incubation (1 ml) with 0.1N NaOH. The solubilized material is transferred to vials containing 10 ml ScintA (Packard), and the radioactivity is determined by liquid scintillation spectrometry.
# (§1) A number of analogs of bombesin or GRP, each containing a non-peptide bond or a statine, AHPPA, or ACHPA, β-amino acid, or γ-amino acid residue, can be synthesized and tested in one or more of the above-described Phase 1-7 assays; the results of Phase 1 and 2 tests are given in Table 1 attached hereto. […] (3T3 GRP receptor and thymidine uptake data are expressed in IC50 (nM).) Table 1 also gives results for non-peptide bond-containing analogs of one other naturally-occurring peptide, Neuromedin C, whose C-terminal seven amino acids are similar to those of bombesin and GRP. (In Table 1, “Litorin” indicates a 9 residue peptide analog or its derivative, whereas “Neuromedin C” indicates a 10 residue analog or its derivative.)
# [2] = target: T1, 3T3 fibroblast bombesin receptors (3T3 GRP receptor) (Mus musculus, UniProt P21729); assay: In vitro inhibition of [125I]GRP binding to 3T3 fibroblast bombesin receptors; design: species or system murine; details: for activity in the 3T3 GRP receptor binding assay (in words): Table 1; for IC50: inhibition of [125I]GRP binding, 3T3 membranes, read-out: 3T3 GRP Receptor IC50
# T1 construct: Membranes from various tissues (rat brain, rat pancreas, rat anterior pituitary, SCLC, 3T3 cells) are prepared by homogenization; endogenous in cells; host or cells: 3T3 fibroblasts (membrane preparation)
# Description: Phase 4—In Vitro Inhibition of [^125I] Gastrin Releasing Peptide (GRP) Binding to Bombesin Receptors
# Membranes from various tissues (rat brain, rat pancreas, rat anterior pituitary, SCLC, 3T3 cells) are prepared by homogenization in 50 mM TrisHCl containing 0.1% bovine serum albumin and 0.1 mg/ml bacitracin followed by two centrifugations (39,000×g×15 min., 4° C.) with an intermediate resuspension in-fresh buffer. For assay, aliquots […] are incubated with 0.5 nM [^125I]GRP (˜2000 Ci/mmol, Amersham Corp.) and various concentrations of the test compounds in a final volume of 0.5 ml. After a 30 minute incubation at 4° C., the binding reaction is terminated by rapid filtration through Whatman GF/C filters that have been pre-soaked in 0.3% aqueous polethyleneimine to reduce the level of nonspecific binding. The filters and tubes are washed three times with 4 ml aliquots of ice-cold buffer, and the radioactivity trapped on the filters is counted by gamma-spectrometry. Specific binding is defined as the total. [^125I]GRP bound minus that bound in the presence of 1000 nM. bombesin or a related peptide.
# as §1
# [3] = target: T2, bombesin receptor (Rattus norvegicus, UniProt P52500); assay: Displacement of 125I-labeled bombesin from rat pancreatic acini cells; type: binding; details: read-out: half-maximal effective dose, displacement of 125I-labeled bombesin
# T2 construct: displace ^125I-labeled bombesin from rat pancreatic acini cells; from tissue; host or cells: rat pancreatic acini cells
# Source text: D-Phe-Gln-Trp-Ala-Val-N-methyl-D-Ala-His-Leu-methylester and D-F5-Phe-Gln-Trp-Ala-Val-D-Ala-His-Leu-methylester were examined for their abilities to displace ^125I-labeled bombesin from rat pancreatic acini cells and to inhibit amylase release from these cells produced by bombesin itself.
# [4] = target: 3T3 fibroblast bombesin receptors (murine (3T3 murine fibroblasts)) (UniProt P21729)
# [5] = target: 3T3 fibroblast bombesin receptors (murine (3T3 murine fibroblasts)) (UniProt P21729); assay: inhibition of [125I]GRP binding to 3T3 cell membranes
# [6] = system: rat anterior pituitary cells; assay: Growth hormone release from primary culture of rat anterior pituitary cells (agonist potency); type: cell-based; details: GH release, relative to GRF(1-29)NH2 = 100; 4-point assay
# Description: Phase 7—Inhibition of Growth Hormone Release
# Anterior pituitaries from adult male rats, weighing 200-250 g and housed under controlled conditions (lights on from 0500-1900 h), were dispersed using aseptic technique by a previously described trypsin/DNase method (Heiman et al., Endocrinology, 1985, 116, 410) derived from other methods (Hoefer et al., Mol. Cell. Endocrinol., 1984, 35, 229).
# The dispersed cells were diluted with sterile-filtered Dulbecco's modified Eagle medium (MEM) (Gibco Laboratories, Grand Island, N.Y. (GIBCO)), which was supplemented with fetal calf serum (2.5%; GIBCO), horse serum (3%; GIBCO), fresh rat serum (10% stored on ice for no longer than 1 h) from the pituitary donors, MEM nonessential amino acids (1%; GIBCO), gentamycin (10/mg/mL; Sigma) and nystatin (10,000 U/mL; GIBCO). The cells were counted with a hemacytometer (approximately 2,000,000 cells per pituitary) and randomly plated at a density of 200,000 per well (Co-star cluster 24; Rochester Scientific Co., Rochester, N.Y.). […]
# Growth hormone (GH) in plasma and media was measured by a standard double antibody radioimmunoassay using components supplied by the NIDDK and the National Hormone and Pituitary Program, University of Maryland School of Medicine. […] Potencies and 95% confidence intervals were calculateds by 4-point assay (Pugsley, Endocrinology, 1946, 39, 161). […]
# [7] = target: bombesin receptor of rat pancreatic acini cells (rat) (UniProt P52500)
# [8] = target: bombesin receptor of rat pancreatic acini cells (rat) (UniProt P52500); assay: displacement of 125I-labeled bombesin from rat pancreatic acini cells
# [9] = target: 3T3 fibroblast bombesin receptors (murine (3T3 murine fibroblasts), UniProt P21729); assay: inhibition of [125I]GRP binding to 3T3 cell membranes
# T1 sequence (P21729 whole entry): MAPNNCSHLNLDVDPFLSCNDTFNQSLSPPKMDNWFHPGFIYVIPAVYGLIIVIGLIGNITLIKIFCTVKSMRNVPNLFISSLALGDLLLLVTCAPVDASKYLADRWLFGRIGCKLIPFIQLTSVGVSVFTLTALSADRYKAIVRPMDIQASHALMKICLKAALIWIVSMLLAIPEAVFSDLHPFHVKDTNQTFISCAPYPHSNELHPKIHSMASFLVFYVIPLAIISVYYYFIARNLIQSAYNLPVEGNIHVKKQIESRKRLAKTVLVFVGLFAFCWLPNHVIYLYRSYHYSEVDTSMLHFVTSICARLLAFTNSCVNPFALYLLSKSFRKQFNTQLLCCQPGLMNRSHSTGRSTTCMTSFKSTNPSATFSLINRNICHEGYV
# swiss 3T3 cells, sequence (P21729 whole entry): as above
# 3T3 fibroblast bombesin receptors (murine (3T3 murine fibroblasts)), sequence (P21729 whole entry): as above
# T2 sequence (P52500 whole entry): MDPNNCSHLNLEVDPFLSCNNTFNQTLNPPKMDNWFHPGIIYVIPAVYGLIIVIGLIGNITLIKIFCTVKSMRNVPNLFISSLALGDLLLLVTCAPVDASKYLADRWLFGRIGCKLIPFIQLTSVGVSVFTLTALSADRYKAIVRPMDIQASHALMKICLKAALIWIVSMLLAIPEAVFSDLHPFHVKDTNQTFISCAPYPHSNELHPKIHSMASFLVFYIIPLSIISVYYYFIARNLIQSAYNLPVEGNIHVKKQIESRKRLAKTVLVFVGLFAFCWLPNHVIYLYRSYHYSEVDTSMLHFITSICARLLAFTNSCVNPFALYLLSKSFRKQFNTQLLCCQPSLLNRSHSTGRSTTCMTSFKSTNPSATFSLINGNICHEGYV
molecule,measurement,setting,value
"CC(C)C[C@@H](CN[C@@H](CC(C)C)C(N)=O)NC(=O)[C@H](Cc1c[nH]cn1)NC(=O)[C@@H](C)NC(=O)[C@@H](NC(=O)[C@H](C)NC(=O)[C@H](Cc1c[nH]c2ccccc12)NC(=O)[C@H](Cc1c[nH]cn1)NC(=O)[C@@H](C)N)C(C)C [BIM-26106, desGly-D-Ala-His-Trp-Ala-Val-D-ALa-His-Leuψ[CH2CH]Leu-NH2] (H-[dA]HWAV[dA]H-X2; N-terminus assumed)",activity in the 3T3 thymidine uptake assay (in words),[1],antagonists
same,activity in the 3T3 GRP receptor binding assay (in words),[2],antagonists
same,IC50,[2],401 nM
"CC(C)C[C@@H](CN[C@@H](CC(C)C)C(N)=O)NC(=O)[C@H](Cc1c[nH]cn1)NC(=O)CNC(=O)[C@@H](NC(=O)[C@H](C)NC(=O)[C@H](Cc1c[nH]c2ccccc12)NC(=O)[C@H](Cc1c[nH]cn1)NC(=O)[C@H](N)Cc1ccccc1)C(C)C [BIM-26107, D-Phe-His-Trp-Ala-Val-Gly-His-Leuψ[CH2NH]Leu-NH2] (H-[dF]HWAVGH-X2)",activity in the 3T3 thymidine uptake assay (in words),[1],antagonists
same,activity in the 3T3 GRP receptor binding assay (in words),[2],antagonists
same,IC50,[2],199 nM
"CC(=O)N[C@H](C)C(=O)N[C@@H](Cc1c[nH]cn1)C(=O)N[C@@H](Cc1c[nH]c2ccccc12)C(=O)N[C@@H](C)C(=O)N[C@H](C(=O)NCC(=O)N[C@@H](Cc1c[nH]cn1)C(=O)N[C@H](CN[C@@H](CC(C)C)C(N)=O)CC(C)C)C(C)C [BIM-26108, N-Ac-D-Ala-His-Trp-Ala-Val-Gly-His-Leuψ[CH2NH]Leu-NH2] (Ac-[dA]HWAVGH-X2)",activity in the 3T3 thymidine uptake assay (in words),[1],negative results
same,IC50,[2],841 nM
COC(=O)[C@H](CC(C)C)NC(=O)[C@H](Cc1c[nH]cn1)NC(=O)[C@@H](C)NC(=O)[C@@H](NC(=O)[C@H](C)NC(=O)[C@H](Cc1c[nH]c2ccccc12)NC(=O)[C@H](CCC(N)=O)NC(=O)[C@H](N)Cc1c(F)c(F)c(F)c(F)c1F)C(C)C [D-F5-Phe-Gln-Trp-Ala-Val-D-Ala-His-Leu-methylester] (H-[dPhe(F5)]QWAV[dA]HL-OMe),IC50,[3],5 to 10 nM
COC(=O)[C@H](CC(C)C)NC(=O)[C@H](Cc1c[nH]cn1)NC(=O)[C@@H](C)N(C)C(=O)[C@@H](NC(=O)[C@H](C)NC(=O)[C@H](Cc1c[nH]c2ccccc12)NC(=O)[C@H](CCC(N)=O)NC(=O)[C@H](N)Cc1ccccc1)C(C)C [D-Phe-Gln-Trp-Ala-Val-N-methyl-D-Ala-His-Leu-methylester] (H-[dF]QWAV[dNMeA]HL-OMe),IC50,[3],5 to 10 nM
"BIM-26114, D-Nal-Gln-Trp-Ala-Val-Gly-His-Leuψ[CH2NH]Leu-NH2 (Litorin analog) (peptide)","bombesin-stimulated [3H]Thymidine uptake, IC50",[4],28 nM
same,IC50,[5],23.5 nM
"BIM-26136, D-Nal-Gln-Trp-Ala-Val-Gly-His-Leuψ[CH2NH]Phe-NH2 (Litorin analog) (peptide)","bombesin-stimulated [3H]Thymidine uptake, IC50",[4],3.3 nM
same,IC50,[5],1.4 nM
"BIM-26182, D-Cpa-Gln-Trp-Ala-Val-Gly-His-β-Leu-NH2 (Litorin analog) (peptide)","bombesin-stimulated [3H]Thymidine uptake, IC50",[4],4.77 nM
same,IC50,[5],0.88 nM
GRF(1-29)NH2 [reference compound],Potency (%),[6],100%
The analogues (D-Phe-Gln-Trp-Ala-Val-N-methyl-D-Ala-His-Leu-methylester and D-F5-Phe-Gln-Trp-Ala-Val-D-Ala-His-Leu-methylester),"inhibition of amylase release produced by bombesin, half-maximal effective dose",[7],5 to 10 nM
same,half-maximal effective dose,[8],5 to 10 nM
"GNHWAVGHLL-NH2 (also: reduced bond ψ[CH2NH] between Leu9 and Leu10) [BIM-26092, Gly-Asn-His-Trp-Ala-Val-Gly-His-Leuψ[CH2NH]Leu-NH2 (Neuromedin C analog)]",IC50,[9],242 nM
same,"bombesin-stimulated [3H]Thymidine uptake, IC50",[4],466 nM
"EQWAVGHFL (pGlu at 1 (written E); reduced peptide bond ψ[CH2NH] between Phe 8 and Leu 9; C-terminal amide) [BIM-26100, pGlu-Gln-Trp-Ala-Val-Gly-His-Pheψ[CH2NH]Leu-NH2 (Litorin analog)]",IC50,[9],23 nM
same,"bombesin-stimulated [3H]Thymidine uptake, IC50",[4],26 nM
"[pGlu]QWAVGHLL-NH2 (also: reduced bond ψ[CH2NH] between Leu8 and Leu9) [BIM-26101, pGlu-Gln-Trp-Ala-Val-Gly-His-Leuψ[CH2NH]Leu-NH2 (Litorin analog)]",IC50,[9],118 nM
same,"bombesin-stimulated [3H]Thymidine uptake, IC50",[4],296 nM
"[pGlu]QWAVGH[Sta]-NH2 (SMILES CC(C)C[C@H](NC(=O)[C@H](Cc1c[nH]cn1)NC(=O)CNC(=O)[C@@H](NC(=O)[C@H](C)NC(=O)[C@H](Cc1c[nH]c2ccccc12)NC(=O)[C@H](CCC(N)=O)NC(=O)[C@@H]1CCC(=O)N1)C(C)C)[C@@H](O)CC(N)=O) [BIM-26120, pGlu-Gln-Trp-Ala-Val-Gly-His-Sta-NH2 (Litorin analog)]",IC50,[9],150 nM
same,"bombesin-stimulated [3H]Thymidine uptake, IC50",[4],165 nM
"FQWAVGHL (D-Phe at 1; C-terminal amide) [BIM-26122, D-Phe-Gln-Trp-Ala-Val-Gly-His-Leu-NH2 (Litorin analog)]",IC50,[9],5.9 nM
